Assay results from PMC11169713 (Frontiers in Immunology, 2024).

Experiments:
[1] = target: biotinylated H1 A/California/04/2009 hemagglutinin (Influenza A virus A/California/04/2009 …, UniProt C3W5S1, strain, biotin (site not stated))
[2] = target: biotinylated H5 A/Indonesia/5/2005 hemagglutinin (Influenza A virus A/Indonesia/5/2005 …, UniProt A5A5L7, strain, biotin (site not stated))
[3] = target: biotinylated H7 A/Shanghai/02/2013 hemagglutinin (Influenza A virus A/Shanghai/02/2013 …, UniProt R4NN21, strain, biotin (site not stated))

Measured: binding result

B1: L5A7.1 (antibody, V domains shown)
VH: QVQLQQSGPGLVKPSQTLSLTCVISGDSVSSNSAAWDWIRQSPSRGLEWLGRTYYRSKWYSDYAVSVKSRITITPDTSKNQFSLHLNSVTPEDTAVYYCARAGVRIFGVIVDSLDYWGQGTLVTVSS
VL: AIQLTQSPSSLSASVGDRVTITCRASQALNSYLAWYQQKPGKAPKLLIFAASTLQSGVPSRFSGSGSGTDFTLTISSLQPEDFATYYCQLSKTFGPGTRVDIE
binds: all assays above

B2: L5A7.2 (antibody, V domains shown)
VH: QVQLQQSGPGLVKPSQTLSLTCVISGDSVSSNSAAWDWIRQTPSRGLEWLGRTYYRSKWYSDYAVSVKSRITITPDTSKNQFSLRLNSVTPEDTAVYYCARAGVRVFGVIVDSLDYWGQGTLVTVSS
VL: AIQLTQSPSSLSASVGDRVTITCRASQGFSSYLAWYQQKPGKAPQLLIYAASTLQSGVPSRFSGSGSGTDFTLTISSLQPEDFATYYCQQSKTFGPGTRVDIE
binds: all assays above

B3: L5A7.3 (antibody, V domains shown)
VH: QVQLQQSGPGLVKPSQTLSLTCVISGDSVSSNTAAWDWIRQSPSRGLEWLGRTYYRSRWYSDYADSVKSRITITPDTSKNQFSLHLNSVTPEDTAVYYCARAGIRIFGIIVDSLDYWGQGTLVTVSS
VL: AIQLTQSPSSLSASVGDRVTITCRASQGANSYLAWYQQKPGKAPKLLIYAASTLQSGVPSRFSGSGSGTDFSLTISSLQPEDFATYYCQESKTFGPGTRVDIE
binds: all assays above

B4: L5A7.4 (antibody, V domains shown)
VH: QVQLQQSGPRLVKPSQTLSLTCAISGDSVSSTSAAWDWIRQSSSRGLEWLGRTYYRSRWYHDYEESVKSRITINADTSKNQFSLQLASVTPEDTAVYYCARAGIRVFGIIVDSLDYWGQGSLVTVSS
VL: AIQLTQSPSSLSASVGDRVTITCRASQGFNSYLAWYQQKPGKAPELLIYAASTLQSGVPSRFSGSGSGTDFTLTISSLQPEDFATYYCQQSKTFGPGTKVDIK
binds: all assays above
